A short description of this data set: self-splicing fitness, log relative to wild type (ln ratio); higher = more splicing; Tetrahymena group I intron in knt gene, E. coli kanamycin selection, DiMSum; sequences stand for … in CUCUCU…GGAGGGAAAAGUUAUCAGGCAUGCACCUGGUAGCUAGUCUUUAAACCAAUAGAUUGCAUCGGUUUAAAAGGCAAGACCGUCAAAUUGCGGGAAAGGGGUCAACAGCCGUUCAGUACCAAGUCUCAGGGGAAACUUUGAGAUGGCCUUGCAAAGGGUAUGGUAAUAAGCUGACGGACAUGGUCCUAACCACGCAGCCAAGUCCUAAGUCAACAGAUCUUCUGUUGAUAUGGAUGCAGUUCACAGACUAAAUGUCGGUCGGGGAAGAUGUAUUCUUCUCAUAAGAUAUAGUCGGACCUCUCCUUAAUGGGAGCUAGCGGAUGAAGUGAUGCAACACUGGAGCCGCUGGGAACUAAUUUGUAUGCGAAAGUAUAUUGAUUAGUUUUGGAGUACUCGUGGUCG
Summed up:
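Fitness was computed with DiMSum as the error-weighted combination of replicate fold changes, kanamycin versus none, each normalised to wild type. The library randomised all eight intron nucleotides of the P1ex region, with the intron placed in the knt kanamycin-resistance gene on pET-22b(+) in E. coli BL21(DE3). Six replicate transformations were grown overnight at 37°C or 30°C on LB agar with or without 25 μg/mL kanamycin, plus 100 μg/mL carbenicillin, 50 μM IPTG and 0.2% rhamnose. Pooled colonies were amplicon-sequenced on an Illumina HiSeq 2500.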

± gives the uncertainty stated by the source.

Regarding AUUGAGCAAUAUUACGGGAU, the “self-splicing fitness (ln)” value is -3.29 ± 0.23 (30 °C) and -1.96 ± 0.15 (37 °C). Take AUUGAGCAAUAUUACGGUAU: the “self-splicing fitness (ln)” value is -2.06 ± 0.13 (30 °C) and -1.59 ± 0.18 (37 °C). The like results for AUUGAGCAAUAUUACGGUUC were, in that order, -3.69 ± 0.33 and -2.16 ± 0.25. The corresponding values for AUUGAGCAAUAUUACGUCGA are -3.47 ± 0.31 and -1.18 ± 0.25. The corresponding values for AUUGAGCAAUAUUACGUUCG are -1.65 ± 0.13 and -1.14 ± 0.14.

On to AUUGAGCAAUAUUACGUUCU, for which the “self-splicing fitness (ln)” value (30 °C) was -2.53 ± 0.14 and the “self-splicing fitness (ln)” value (37 °C) was -1.22 ± 0.15.

With AUUUAGCAAUAUUACGAAAA, the “self-splicing fitness (ln)” value reads like this: (30 °C) -1.99 ± 0.26; (37 °C) -1.01 ± 0.23. The corresponding values for AUUUAGCAAUAUUACGAACU are 0.198 ± 0.13 and 0.211 ± 0.14. The corresponding values for AUUUAGCAAUAUUACGAAUU are -3.21 ± 0.35 and -1.85 ± 0.38. As for AUUUAGCAAUAUUACGACAA, the “self-splicing fitness (ln)” value runs as follows: (30 °C) -1.36 ± 0.2; (37 °C) -0.936 ± 0.22. In the case of AUUUAGCAAUAUUACGACCC, the “self-splicing fitness (ln)” value (30 °C) was -1.16 ± 0.28 and the “self-splicing fitness (ln)” value (37 °C) is -0.0521 ± 0.3. The like results for AUUUAGCAAUAUUACGAUUU were, in that order, -0.123 ± 0.12 and 0.23 ± 0.13.

On to AUUUAGCAAUAUUACGCAAG, for which the “self-splicing fitness (ln)” value reads like this: (30 °C) -2.59 ± 0.32; (37 °C) -0.488 ± 0.14. Take AUUUAGCAAUAUUACGCACC: the “self-splicing fitness (ln)” value (30 °C) is -1.01 ± 0.18 and the “self-splicing fitness (ln)” value (37 °C) is -0.21 ± 0.2.

Regarding AUUUAGCAAUAUUACGCAUC, the “self-splicing fitness (ln)” value runs as follows: (30 °C) -3.58 ± 0.19; (37 °C) -3.27 ± 0.32. The corresponding values for AUUUAGCAAUAUUACGCAUU are -1.7 ± 0.11 and -0.617 ± 0.13.

In the case of AUUUAGCAAUAUUACGCCUC, for the setting “37 °C”, the “self-splicing fitness (ln)” value is -0.949 ± 0.27. As to AUUUAGCAAUAUUACGCGAA, the “self-splicing fitness (ln)” value reads like this: (30 °C) -3.01 ± 0.21; (37 °C) -0.549 ± 0.16.

For the sequence AUUUAGCAAUAUUACGCGCG, the “self-splicing fitness (ln)” value is -1.28 ± 0.2 (30 °C) and -0.257 ± 0.22 (37 °C). The corresponding values for AUUUAGCAAUAUUACGCGUA are -1.36 ± 0.12 and -1 ± 0.14. As to AUUUAGCAAUAUUACGCUAG, the “self-splicing fitness (ln)” value (30 °C) is -0.961 ± 0.097 and the “self-splicing fitness (ln)” value (37 °C) was -0.937 ± 0.12. The like results for AUUUAGCAAUAUUACGCUAU were, in that order, -3.64 ± 0.3 and -0.748 ± 0.23. Regarding AUUUAGCAAUAUUACGCUUC, the “self-splicing fitness (ln)” value (30 °C) is -2.33 ± 0.5. As to AUUUAGCAAUAUUACGGCUU, the “self-splicing fitness (ln)” value was -0.173 ± 0.12 (30 °C) and 0.0373 ± 0.15 (37 °C). The corresponding values for AUUUAGCAAUAUUACGGGAA are -2.24 ± 0.26 and -1.84 ± 0.19. Turning to AUUUAGCAAUAUUACGGGAG, the “self-splicing fitness (ln)” value by setting is: (30 °C) -2.97 ± 0.41; (37 °C) -0.342 ± 0.16. The like results for AUUUAGCAAUAUUACGGUAA were, in that order, -1.59 ± 0.17 and -1.54 ± 0.17. In the case of AUUUAGCAAUAUUACGGUAU, the “self-splicing fitness (ln)” value by setting is: (30 °C) -1.51 ± 0.088; (37 °C) -0.753 ± 0.089.

For the sequence AUUUAGCAAUAUUACGGUCU, the “self-splicing fitness (ln)” value runs as follows: (30 °C) -0.911 ± 0.1; (37 °C) -0.391 ± 0.15.

Turning to AUUUAGCAAUAUUACGUACC, the “self-splicing fitness (ln)” value (30 °C) was -0.819 ± 0.45 and the “self-splicing fitness (ln)” value (37 °C) was -1.04 ± 0.31. AUUUAGCAAUAUUACGUCUA: the “self-splicing fitness (ln)” value was -0.829 ± 0.15 (30 °C) and 0.0394 ± 0.15 (37 °C). On to AUUUAGCAAUAUUACGUGAA, for which the “self-splicing fitness (ln)” value is, setting by setting: (30 °C) -2.53 ± 0.14; (37 °C) -0.614 ± 0.12. The like results for AUUUAGCAAUAUUACGUUGG were, in that order, -3.51 ± 0.2 and -2.62 ± 0.22. The like results for AUUUAGCAAUAUUACGUUUA were, in that order, -1.97 ± 0.19 and -1.07 ± 0.21.

These data come from the supplement of paper PMC7877785.
